Assay results: patent US20250296971A1, “GASTRIC INHIBITORY PEPTIDE RECEPTOR LIGANDS” (priority 2021, published 2025)
*1 amine or outer side, *2 acyl side, *3 side chain or, on linkers, in order; H or OH if unused. Bridges are numbered along the chain shown (N, C = ends). Primed or numbered codes have the meaning given here. [ ]: non-standard residue; d: D form. The star is where a group is joined. Ttds″ = 1,13-diamino-4,7,10-trioxatridecan-succinamic acid (linker), O=C(CCC(=O)[*:2])NCCCOCCOCCOCCCN[*:1]; Ttds = 1,13-diamino-4,7,10-trioxatridecan-succinamic acid, NCCCOCCOCCOCCCNC(=O)CCC(=O)*; DOTA(In) = O=C1CN2CCN3CCN(CC(=O)*)CCN(CC2)CC(=O)[O][In]([O]1)[O]C(=O)C3; Ttds(3) = 1,13-diamino-4,7,10-trioxatridecan-succinamic acid linker; APAc″ = 4-amino-1-carboxymethylpiperidine, NC1CCN(CC(=O)*)CC1; dE(AGLU) = D-glutamic acid bearing 1-amino-1-deoxy-D-glucitol; Ttds(4) = 1,13-diamino-4,7,10-trioxatridecan-succinamic acid; Pro(trans-4-NH2) = O=C([C@@H]1C[C@@H](N[*:3])CN1[*:1])[*:2]; DOTA = O=C(O)CN1CCN(CC(=O)O)CCN(CC(=O)*)CCN(CC(=O)O)CC1; 3MeBn = 3-methyl-benzylidene (derived from 1,3-xylene); 2Lut = 2,6-lutidylidene bridge between two thiols; Trp(5-Cl) = N[C@@H](Cc1c[nH]c2ccc(Cl)cc12)C(=O)O; Pyridine(2,6-diCH2) = c1cc(C[*:1])nc(C[*:2])c1; 2Lut″ = 2,6-lutidylidene linking two thiols; APAc = 4-amino-1-carboxymethylpiperidine; mXylylene = c1cc(C[*:1])cc(C[*:2])c1; LuDOTA = DOTA Lutetium(III) complex; Glutaryl = O=C(CCCC(=O)[*:2])[*:1]; AGLU = 1-amino-1-deoxy-D-glucitol; Cya = N[C@@H](CS(=O)(=O)O)C(=O)O; Hyp = O=C(O)[C@@H]1C[C@@H](O)CN1; Cysteamide = C(CS[*:3])N[*:1]; Suc = O=C(CCC(=O)[*:2])[*:1]; N(CH2CH2)2NH = C1CN(*)CCN1; hSer = N[C@@H](CCO)C(=O)O; Api = NC1(C(=O)O)CCNCC1; Thp = NC1(C(=O)O)CCOCC1; Dap = NC[C@H](N)C(=O)O; NH(CH2)5NH2 = NCCCCCN*; DOTA′ = DOTA chelator; Aib = CC(C)(N)C(=O)O

Key:
[1] = molecular target: biotinylated extracellular domain of the human GIP receptor (bioGIPR) (human) (UniProt P48546); assay: SPR single cycle kinetics, bioGIPR captured on chip; category A: pKD >9.0
[2] = molecular target: human Gastric Inhibitory Peptide Receptor (human) (UniProt P48546); assay: FACS competition with GIP-057 on CHO-K1-hGIPR cells; pIC50 category A: >8.0
[3] = molecular target: biotinylated extracellular domain of the human GIP receptor (bioGIPR) (human) (UniProt P48546); assay: SPR single cycle kinetics, bioGIPR captured on chip; category A: t1/2 >15 min

Sequence of biotinylated extracellular domain of the human GIP receptor (bioGIPR) (human) (P48546 24-138 limits assumed): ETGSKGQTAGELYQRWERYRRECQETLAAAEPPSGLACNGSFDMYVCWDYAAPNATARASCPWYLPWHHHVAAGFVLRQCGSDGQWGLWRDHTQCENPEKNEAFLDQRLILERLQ
Sequence of human Gastric Inhibitory Peptide Receptor (human) (P48546 22-466 limits assumed): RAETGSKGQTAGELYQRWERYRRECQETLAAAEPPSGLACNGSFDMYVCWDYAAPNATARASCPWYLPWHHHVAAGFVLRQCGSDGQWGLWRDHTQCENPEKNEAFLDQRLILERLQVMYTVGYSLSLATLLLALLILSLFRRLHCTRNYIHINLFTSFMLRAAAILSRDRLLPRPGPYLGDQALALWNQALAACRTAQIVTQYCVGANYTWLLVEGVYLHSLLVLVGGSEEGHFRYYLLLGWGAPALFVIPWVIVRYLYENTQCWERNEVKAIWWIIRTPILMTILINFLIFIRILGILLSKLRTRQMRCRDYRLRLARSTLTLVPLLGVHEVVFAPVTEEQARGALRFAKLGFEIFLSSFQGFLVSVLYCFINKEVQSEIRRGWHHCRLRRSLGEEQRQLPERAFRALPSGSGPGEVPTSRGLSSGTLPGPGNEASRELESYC

Row | Binder | pKD [1] | pIC50 [2] | t1/2 [3]
1 | Ac-[Cya]W[Trp(5-Cl)][Hyp]E[dL]C[Aib]LI[Cysteamide] (linker (positions not given here) via Pyridine(2,6-diCH2); not fully specified (bridges); printed as Ac-Cya-Trp-5Clw-Hyp-Glu-leu-[Cys(2Lut)-Aib-Leu-Ile-AET]) [Ac-Cya-Trp-5Clw-Hyp-Glu-leu-[Cys(2Lut)-Aib-Leu-Ile-AET]] | > 9 pkd | > 8 pic50 | > 15 min
2 | {AGLU-Glutaryl-APAc}-DW[Trp(5-Cl)][Pro(trans-4-NH2)]E[dL]C[Api]LIC-{APAc-dE(AGLU)-NH2} (linker 7-11 via Pyridine(2,6-diCH2); not fully specified (residue 8)) | > 9 pkd | > 8 pic50 | > 15 min
3 | Ac-DW[Trp(5-Cl)][Pro(trans-4-NH2)](DOTA)E[dL]C[Thp]LIC-NH2 (linker 7-11 via 2Lut″) [Ac-Asp-Trp-5Clw-Tap(DOTA)-Glu-leu-[Cys(2Lut)-Thp-Leu-Ile-Cys]-NH2] | > 9 pkd | > 8 pic50 | > 15 min
4 | Suc-W[Trp(5-Cl)][Hyp]E[dL]C[Thp]LIC-{APAc-Lys(DOTA)-NH2} (linker 6-10 via 2Lut) [HO-Succinyl-Trp-5Clw-Hyp-Glu-leu-[Cys(2Lut)-Thp-Leu-Ile-Cys]-APAc-Lys(DOTA)-NH2] | > 9 pkd | > 8 pic50 | > 15 min
5 | {LuDOTA-Ttds}-DW[Trp(5-Cl)]PE[dL]C[Aib]LI[Cysteamide] (linker 7-11 via mXylylene) [LuDOTA-Ttds-Asp-Trp-5Clw-Pro-Glu-leu-[Cys(3MeBn)-Aib-Leu-Ile-AET]] | > 9 pkd | > 8 pic50 | > 15 min
6 | {DOTA-Ttds}-DW[Trp(5-Cl)][Pro(trans-4-NH2)]E[dL]C[Api]LI[Cysteamide] (linker 7-11 via Pyridine(2,6-diCH2)) [DOTA-Ttds-Asp-Trp-5Clw-Tap-Glu-leu-[Cys(2Lut)-Apc-Leu-Ile-AET]] | > 9 pkd | > 8 pic50 | > 15 min
7 | {DOTA-APAc″}-DW[Trp(5-Cl)][Hyp]E[dL][Dap][Thp]LI[Cysteamide] (linker (positions not given here) via mXylylene; not fully specified (bridges); printed as DOTA-APAc-Asp-Trp-5Clw-Hyp-Glu-leu-[Dap(3MeBn)-Thp-Leu-Ile-AET]) [DOTA-APAc-Asp-Trp-5Clw-Hyp-Glu-leu-[Dap(3MeBn)-Thp-Leu-Ile-AET]] | > 9 pkd | > 8 pic50 | > 15 min
8 | {AGLU-Glutaryl}-DW[Trp(5-Cl)][Hyp]E[dL]C[Api](DOTA(In))LI[Cysteamide] (thioether (positions not given here) via Pyridine(2,6-diCH2); not fully specified (bridges); printed as AGLU-Glutar-Asp-Trp-5Clw-Hyp-Glu-leu-[Cys(2Lut)-Apc(InDOTA)-Leu-Ile-AET]; also: In complex of DOTA) [AGLU-Glutar-Asp-Trp-5Clw-Hyp-Glu-leu-[Cys(2Lut)-Apc(InDOTA)-Leu-Ile-AET]] | > 9 pkd | > 8 pic50 | > 15 min
9 | {DOTA(In)-APAc″}-DW[Trp(5-Cl)]PE[dL]C[Aib]LI[Cysteamide] (linker 7-11 via 3MeBn; also: DOTA as indium complex (InDOTA)) [InDOTA-APAc-Asp-Trp-5Clw-Pro-Glu-leu-[Cys(3MeBn)-Aib-Leu-Ile-AET]] | > 9 pkd | > 8 pic50 | > 15 min
10 | {DOTA-Ttds}-DW[Trp(5-Cl)][Pro(trans-4-NH2)]E[dL][Dap][Api]LI[Cysteamide] (linker 7-11 via Pyridine(2,6-diCH2)) [DOTA-Ttds-Asp-Trp-5Clw-Tap-Glu-leu-[Dap(2Lut)-Apc-Leu-Ile-AET]] | > 9 pkd | > 8 pic50 | > 15 min
11 | Ac-SW[Trp(5-Cl)][Hyp]E[dL]C[Thp]LIC-NH2 (linker 7-11 via Pyridine(2,6-diCH2); SMILES CC[C@H](C)[C@@H]1NC(=O)[C@H](CC(C)C)NC(=O)C2(CCOCC2)NC(=O)[C@@H](NC(=O)[C@@H](CC(C)C)NC(=O)[C@H](CCC(=O)O)NC(=O)[C@@H]2C[C@@H](O)CN2C(=O)[C@H](Cc2c[nH]c3ccc(Cl)cc23)NC(=O)[C@H](Cc2c[nH]c3ccccc23)NC(=O)[C@H](CO)NC(C)=O)CSCc2cccc(n2)CSC[C@@H](C(N)=O)NC1=O) [Ac-Ser-Trp-5Clw-Hyp-Glu-leu-[Cys(2Lut)-Thp-Leu-Ile-Cys]-NH2] | > 9 pkd | > 8 pic50 | > 15 min
12 | {DOTA-Ttds″}-DW[Trp(5-Cl)]PE[dL]C[Api]LI-Cysteamide (not fully specified (bridges); printed as DOTA-Ttds-Asp-Trp-5Clw-Pro-Glu-leu-[Cys(2Lut)-Apc-Leu-Ile-AET]) [DOTA-Ttds-Asp-Trp-5Clw-Pro-Glu-leu-[Cys(2Lut)-Apc-Leu-Ile-AET]] | > 9 pkd | > 8 pic50 | > 15 min
13 | DWXXEXCXLIC (AGLU-Glutar; 5Clw; Hyp; D-leu; Apc(AGLU-Glutar); 2Lut bridge Cys-Cys; APAc; Lys(DOTA); C-term NH2) [AGLU-Glutar-Asp-Trp-5Clw-Hyp-Glu-leu-[Cys(2Lut)-Apc(AGLU-Glutar)-Leu-Ile-Cys]-APAc-Lys(DOTA)-NH2] | > 9 pkd | > 8 pic50 | > 15 min
14 | {AGLU-Glutaryl-APAc}-DW[Trp(5-Cl)][Hyp]E[dL]C[Api](DOTA)LIC-{APAc-dE(AGLU)-NH2} (linker 7-11 via Pyridine(2,6-diCH2)) [AGLU-Glutar-APAc-Asp-Trp-5Clw-Hyp-Glu-leu-[Cys(2Lut)-Apc(DOTA)-Leu-Ile-Cys]-APAc-glu(AGLU)-NH2] | > 9 pkd | > 8 pic50 | > 15 min
15 | Suc-W[Trp(5-Cl)][Hyp]E[dL]C[Thp]LIC-{Ttds(3)-Lys(DOTA)-NH2} (linker 6-10 via Pyridine(2,6-diCH2)) [HO-Succinyl-Trp-5Clw-Hyp-Glu-leu-[Cys(2Lut)-Thp-Leu-Ile-Cys]-Ttds-Lys(DOTA)-NH2] | > 9 pkd | > 8 pic50 | > 15 min
16 | Ac-DW[Trp(5-Cl)][Hyp][hSer][dL]C[Thp]LIC-NH2 (linker 7-11 via Pyridine(2,6-diCH2); SMILES CC[C@H](C)[C@@H]1NC(=O)[C@H](CC(C)C)NC(=O)C2(CCOCC2)NC(=O)[C@@H](NC(=O)[C@@H](CC(C)C)NC(=O)[C@H](CCO)NC(=O)[C@@H]2C[C@@H](O)CN2C(=O)[C@H](Cc2c[nH]c3ccc(Cl)cc23)NC(=O)[C@H](Cc2c[nH]c3ccccc23)NC(=O)[C@H](CC(=O)O)NC(C)=O)CSCc2cccc(n2)CSC[C@@H](C(N)=O)NC1=O) [Ac-Asp-Trp-5Clw-Hyp-Hse-leu-[Cys(2Lut)-Thp-Leu-Ile-Cys]-NH2] | > 9 pkd | > 8 pic50 | > 15 min
17 | Suc-W[Trp(5-Cl)][Hyp]E[dL]C[Thp]LIC-{N(CH2CH2)2NH-DOTA′} (linker 6-10 via 2Lut) [HO-Succinyl-Trp-5Clw-Hyp-Glu-leu-[Cys(2Lut)-Thp-Leu-Ile-Cys]-PP-DOTA] | > 9 pkd | > 8 pic50 | > 15 min
18 | {DOTA(In)-APAc″}-DW[Trp(5-Cl)][Hyp]E[dL]C[Thp]LI[Cysteamide] (linker 7-11 via 2Lut; also: DOTA as indium complex (InDOTA)) [InDOTA-APAc-Asp-Trp-5Clw-Hyp-Glu-leu-[Cys(2Lut)-Thp-Leu-Ile-AET]] | > 9 pkd | > 8 pic50 | > 15 min
19 | Suc-W[Trp(5-Cl)][Hyp]E[dL]C[Api](DOTA(In))LI[Cysteamide] (linker 6-10 via 2Lut; also: In complex of DOTA) [HO-Succinyl-Trp-5Clw-Hyp-Glu-leu-[Cys(2Lut)-Apc(InDOTA)-Leu-Ile-AET]] | > 9 pkd | > 8 pic50 | > 15 min
20 | Suc-W[Trp(5-Cl)][Hyp]E[dL]C[Api]LIC-{APAc-Lys(DOTA)-NH2} (linker 6-10 via 2Lut) [HO-Succinyl-Trp-5Clw-Hyp-Glu-leu-[Cys(2Lut)-Apc-Leu-Ile-Cys]-APAc-Lys(DOTA)-NH2] | > 9 pkd | > 8 pic50 | > 15 min
21 | Suc-W[Trp(5-Cl)][Hyp]E[dL]C[Api](DOTA)LI[Cysteamide] (linker 6-10 via 2Lut) [HO-Succinyl-Trp-5Clw-Hyp-Glu-leu-[Cys(2Lut)-Apc(DOTA)-Leu-Ile-AET]] | > 9 pkd | > 8 pic50 | > 15 min
22 | Suc-W[Trp(5-Cl)][Hyp]E[dL]C[Thp]LIC-{NH(CH2)5NH2-DOTA′} (linker 6-10 via 2Lut) [HO-Succinyl-Trp-5Clw-Hyp-Glu-leu-[Cys(2Lut)-Thp-Leu-Ile-Cys]-Ape-DOTA] | > 9 pkd | > 8 pic50 | > 15 min
23 | {DOTA(In)-Ttds}-DW[Trp(5-Cl)][Hyp]E[dL]C[Aib]LI[Cysteamide] (linker 7-11 via 3MeBn; also: DOTA as indium complex (InDOTA)) [InDOTA-Ttds-Asp-Trp-5Clw-Hyp-Glu-leu-[Cys(3MeBn)-Aib-Leu-Ile-AET]] | > 9 pkd | > 8 pic50 | > 15 min
